Assay results reported in PMC12571865, “Profiling of HIV-1 elite neutralizer cohort reveals a CD4bs bnAb for HIV-1 prevention and therapy” (Nature immunology, 2025).

Target: T1, BG505 SOSIP.664 Env trimer (preparation for cryo-EM) (HIV-1 (strain BG505), UniProt Q2N0S6)
T1 construct: also called BG505_(SOSIP) trimer; source: Expi293F, transient co-transfection with a furin-encoding plasmid; copies: 3 + 3
Test: cryo-EM structure; Fab–trimer complexes in TBS, incubated overnight at room temperature: 04_A06–PGDM1400–BG505 at 3.6:1.2:1 (Fab:Fab:trimer), purified on Superose-6 Increase; 01_D03–BG505 and 05_B08–BG505 at 3.6:1 (Fab:trimer) without further SEC
Conditions: both partners purified

B1: PGDM1400 Fab (Fab, V domains shown)
VH: QAQLVQSGPEVRKPGTSVKVSCKAPGNTLKTYDLHWVRSVPGQGLQWMGWISHEGDKKVIVERFKAKVTIDWDRSTNTAYLQLSGLTSGDTAVYYCAKGSKHRLRDYALYDDDGALNWAVDVDYLSNLEFWGQGTAVTVSS
VL: DFVLTQSPHSLSVTPGESASISCKSSHSLIHGDRNNYLAWYVQKPGRSPQLLIYLASSRASGVPDRFSGSGSDKDFTLKISRVETEDVGTYYCMQGRESPWTFGQGTKVDIK
stoichiometry N: 1 Fab per trimer
